{
  "source": "paper PMC8589836",
  "about": "“A viral genome packaging ring-ATPase is a flexibly coordinated pentamer” (Nature Communications, 2021)",
  "key": {"[1]": {"target": "the molecule itself", "experiment": "single-molecule TIRF fluorescence (Cy3 photobleaching step counting); motors assembled from T4 heads, Cy3-labelled SNAP-gp17 monomer (2-5 uM), 1 mM ATP-gammaS and 120-bp DNA; heads held on a PEG surface by anti-T4 polyclonal antibody; only spots with packaged Cy5-DNA counted; binomial fit of step counts (486 trajectories); room temperature"}, "[2]": {"target": "the molecule itself", "experiment": "not stated; assembly of the Q163A mutant into a pentamer; shown only in Supplementary Fig. 3b-g"}, "[3]": {"target": "T1, WT-gp17 (His-tagged, unlabeled wild-type phage T4 gp17) (bacteriophage T4, UniProt P17312 1-610)", "T1 construct": "Large terminase gp17 of bacteriophage T4; also called unlabeled WT gp17; source: E. coli BL21 (DE3) pLysS or codon-plus BL21 (DE3) RIPL, purified (HisTrap, Superdex-200 SEC)", "experiment": "single-molecule TIRF fluorescence (Cy3 photobleaching step counting); only the inactive SNAP-Q163A-gp17 labelled with Cy3, mixed with unlabeled WT gp17 and assembled on T4 heads; heads held on a PEG surface by anti-T4 antibody; Cy5-DNA and ATP flowed in, DNase I after ~10 min; Cy3 and Cy5 spots colocalised (2405 trajectories); room temperature", "details": "both partners purified"}},
  "data": [
    {"binder": "SNAP-gp17 (SNAP-tagged full-length wild-type phage T4 large terminase gp17, labelled with SNAP-Surface 549) (enzyme, bacteriophage T4, UniProt P17312 1-610, looked up, SNAP-Surface 549 fluorophore (called Cy3 in the paper) on the SNAP-tag, Large terminase gp17 of bacteriophage T4, full-length wild type, amplified from pET15-gp17 and inserted into pET-SNAP; Order on the chain as printed: SNAP-tag, hexa-histidine tag, full-length gp17; Added as a monomer; it assembles into the motor on the T4 head; also called WT gp17; Cy3-labeled gp17; not shown: SNAP-tag, N-terminal, kept) MEQPINVLNDFHPLNEAGKILIKHPSLAERKDEDGIHWIKSQWDGKWYPEKFSDYLRLHKIVKIPNNSDKPELFQTYKDKNNKRSRYMGLPNLKRANIKTQWTREMVEEWKKCRDDIVYFAETYCAITHIDYGVIKVQLRDYQRDMLKIMSSKRMTVCNLSRQLGKTTVVAIFLAHFVCFNKDKAVGILAHKGSMSAEVLDRTKQAIELLPDFLQPGIVEWNKGSIELDNGSSIGAYASSPDAVRGNSFAMIYIDECAFIPNFHDSWLAIQPVISSGRRSKIIITTTPNGLNHFYDIWTAAVEGKSGFEPYTAIWNSVKERLYNDEDIFDDGWQWSIQTINGSSLAQFRQEHTAAFEGTSGTLISGMKLAVMDFIEVTPDDHGFHQFKKPEPDRKYIATLDCSEGRGQDYHALHIIDVTDDVWEQVGVLHSNTISHLILPDIVMRYLVEYNECPVYIELNSTGVSVAKSLYMDLEYEGVICDSYTDLGMKQTKRTKAVGCSTLKDLIEKDKLIIHHRATIQEFRTFSEKGVSWAAEEGYHDDLVMSLVIFGWLSTQSKFIDYADKDDMRLASEVFSKELQDMSDDYAPVIFVDSVHSAEYVPVSHGMSMV", "values": [
      {"measurement": "stoichiometry N", "setting": "[1]", "value": 5}
    ]},
    {"binder": "SNAP-Q163A-gp17 (ATPase-defective Walker A P-loop mutant of SNAP-tagged gp17, labelled with SNAP-Surface 549) (enzyme, bacteriophage T4, UniProt P17312 1-610, looked up, SNAP-Surface 549 fluorophore (called Cy3 in the paper) on the SNAP-tag, Large terminase gp17 of bacteriophage T4, full length, with Q163A; made by overlap PCR with the SNAP-gp17 construct as template; also called Q163A mutant; not shown: SNAP-tag, N-terminal, kept) MEQPINVLNDFHPLNEAGKILIKHPSLAERKDEDGIHWIKSQWDGKWYPEKFSDYLRLHKIVKIPNNSDKPELFQTYKDKNNKRSRYMGLPNLKRANIKTQWTREMVEEWKKCRDDIVYFAETYCAITHIDYGVIKVQLRDYQRDMLKIMSSKRMTVCNLSRALGKTTVVAIFLAHFVCFNKDKAVGILAHKGSMSAEVLDRTKQAIELLPDFLQPGIVEWNKGSIELDNGSSIGAYASSPDAVRGNSFAMIYIDECAFIPNFHDSWLAIQPVISSGRRSKIIITTTPNGLNHFYDIWTAAVEGKSGFEPYTAIWNSVKERLYNDEDIFDDGWQWSIQTINGSSLAQFRQEHTAAFEGTSGTLISGMKLAVMDFIEVTPDDHGFHQFKKPEPDRKYIATLDCSEGRGQDYHALHIIDVTDDVWEQVGVLHSNTISHLILPDIVMRYLVEYNECPVYIELNSTGVSVAKSLYMDLEYEGVICDSYTDLGMKQTKRTKAVGCSTLKDLIEKDKLIIHHRATIQEFRTFSEKGVSWAAEEGYHDDLVMSLVIFGWLSTQSKFIDYADKDDMRLASEVFSKELQDMSDDYAPVIFVDSVHSAEYVPVSHGMSMV", "values": [
      {"measurement": "stoichiometry N", "setting": "[2]", "value": 5},
      {"measurement": "binding result", "setting": "[3]", "value": "binds"}
    ]}
  ]
}
